Key:
[1] = target: T1, CD40 receptor on cells (HEK293 reporter cells expressing CD40; primary human B cells) (human, UniProt P25942 21-277); assay: cell-based or functional assay
[2] = target: T1, CD40 receptor on cells (HEK293 reporter …); assay: cell-based or functional assay; remark: listed apart in the source
[3] = target: T1, CD40 receptor on cells (HEK293 reporter …); assay: cell-based or functional assay; remark: listed apart in the source
[4] = target: T1, CD40 receptor on cells (HEK293 reporter …); assay: cell-based or functional assay; remark: listed apart in the source
[5] = target: T2, biotinylated human CD40 (recombinant human CD40 target) (human, UniProt P25942 21-194, biotinylated (site not stated)); assay: SPR (ProteOn), biotinylated human CD40 on NLC chip, ankyrin repeat protein injected, 1:1 Langmuir, PBST
T2 construct: The HTRF and SPR texts say only 'biotinylated human CD40'; the Materials list a bought Fc fusion of the extracellular domain of human CD40 (ACRO Biosystems) as the only recombinant CD40; also called hCD40; Recombinant Fc fusion protein of the extracellular domain of human CD40; not shown: IgG1 Fc domain
Experimental: Briefly, biotinylated human CD40 was diluted in PBST (PBS, pH 7.4 containing 0.005% Tween 20®) and coated on two lanes of a NLC chip (BioRad) to levels of respectively 400 and 700 resonance units (RU). The interaction of ankyrin repeat protein and hCD40 was then measured by injecting 200 μl running buffer (PBS, pH 7.4 containing 0.005% Tween 20®) containing serial dilutions of ankyrin repeat proteins covering a concentration range between 50 nM and 3 nM for multi-trace SPR measurements (on-rate measurement), followed by a running buffer flow for at least 10 minutes at a constant flow rate of 100 μl/min (off-rate measurement). The regeneration was performed using 30 μl of 10 mM Glycine-HCl pH 2. The signals (i.e. resonance unit (RU) values) of the interspots and a reference injection (i.e. injection of running buffer only) were subtracted from the RU traces obtained after injection of ankyrin repeat protein (double-referencing). Based on the SPR traces obtained from the on-rate and off-rate measurements, the on- and off-rate of the corresponding ankyrin repeat protein—CD40 interaction was determined using a 1:1 Langmuir kinetic model.
Dissociation constants (KD) were calculated from the estimated on- and off-rates using standard procedures known to the person skilled in the art. KD values of the binding interactions of selected ankyrin repeat proteins with human CD40 were determined to be in the nanomolar range. Table 2 provides the KD values of some selected ankyrin repeat proteins as examples.

T2 sequence (P25942 other isoform, or with tags, fused parts or gaps): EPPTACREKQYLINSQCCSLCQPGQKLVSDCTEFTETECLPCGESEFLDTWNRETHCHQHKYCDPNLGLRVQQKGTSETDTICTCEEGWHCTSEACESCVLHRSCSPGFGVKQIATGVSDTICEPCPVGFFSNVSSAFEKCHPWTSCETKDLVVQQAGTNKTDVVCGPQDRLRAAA
T1 sequence (P25942 21-277): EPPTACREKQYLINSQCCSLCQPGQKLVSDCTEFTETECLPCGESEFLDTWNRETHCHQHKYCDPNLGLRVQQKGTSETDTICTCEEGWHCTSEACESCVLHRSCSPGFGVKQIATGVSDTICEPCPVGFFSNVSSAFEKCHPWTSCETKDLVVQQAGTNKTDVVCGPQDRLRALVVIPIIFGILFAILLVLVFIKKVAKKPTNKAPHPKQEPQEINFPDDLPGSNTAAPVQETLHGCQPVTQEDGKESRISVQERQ

B1: SMA104 (SEQ ID NO: 102) (designed binder)
chain: MRGSHHHHHHGSDLGEKLLVAALYGQDDEVRELLKAGADVNAKDQWGLTPLHKAALQGHLEIVEVLLKAGADVNAKDERGHTPLHWAARFGHLEIVEVLLKAGADVNAQDQKGYTPADLAALWGHEDIAEVLQKAAGSPTPTPTTPTPTPTTPTPTPTGSDLGKKLLQAARAGQLDEVRELLKAGADVNAKDTWGFTPLHIAAESGHLEIVEVLLKAGADVNAKDVQGRTPLHIAAHSGHLEIVEVLLKAGADVNAKDFRGWTPLHLAAWSGHLEIVEILLKAGADVNAQDKSGKTPADLAARAGHQDIAEVLQKAAGSPTPTPTTPTPTPTTPTPTPTGSDLGKKLLQAARAGQLDEVRELLKAGADVNAKDTWGFTPLHIAAESGHLEIVEVLLKAGADVNAKDVQGRTPLHIAAHSGHLEIVEVLLKAGADVNAKDFRGWTPLHLAAWSGHLEIVEILLKAGADVNAQDKSGKTPADLAARAGHQDIAEVLQKAA
- efficacy of CD86 upregulation on human B cells with FAP-CHO, fold against the monovalent F-C format (SMA014) [1]: 2 fold
- potency of CD86 upregulation on human B cells with FAP-CHO, fold against the monovalent F-C format (SMA014) [1]: 20 fold
- EC50 [nM], % CD86, human B cells with FAP-CHO, w/o HSA [2]: 0.23 nM
- EC50 [nM], MFI CD86, human B cells with FAP-CHO, w/o HSA [2]: 0.74 nM
- Efficacy [MFI at highest dose], MFI CD86, human B cells with FAP-CHO, w/o HSA [3]: 6270 MFI
- Efficacy at highest dose, % CD86, human B cells with FAP-CHO, w/o HSA [3]: 86.8%
- Efficacy [MFI at highest dose], MFI CD86, human B cells with WT-CHO (no FAP), w/o HSA [4]: 252 MFI
- Efficacy at highest dose, % CD86, human B cells with WT-CHO (no FAP), w/o HSA [4]: 46%

B2: SMA087 (SEQ ID NO: 100) (designed binder)
chain: MRGSHHHHHHGSDLGKKLLEAARAGQDDEVRELLKAGADVNAKDYFSHTPLHLAARNGHLKIVEVLLKAGADVNAKDFAGKTPLHLAAADGHLEIVEVLLKAGADVNAQDIFGKTPADIAADAGHEDIAEVLQKAAGSPTPTPTTPTPTPTTPTPTPTGSDLGEKLLVAALYGQDDEVRELLKAGADVNAKDQWGLTPLHKAALQGHLEIVEVLLKAGADVNAKDERGHTPLHWAARFGHLEIVEVLLKAGADVNAQDQKGYTPADLAALWGHEDIAEVLQKAAGSPTPTPTTPTPTPTTPTPTPTGSDLGKKLLQAARAGQLDEVRELLKAGADVNAKDTWGFTPLHIAAESGHLEIVEVLLKAGADVNAKDVQGRTPLHIAAHSGHLEIVEVLLKAGADVNAKDFRGWTPLHLAAWSGHLEIVEILLKAGADVNAQDKSGKTPADLAARAGHQDIAEVLQKAA
- EC50 [nM], % CD86, human B cells with FAP-CHO, w HSA [2]: 72.3 nM
- EC50 [nM], % CD86, human B cells with FAP-CHO, w/o HSA [2]: 11.4 nM
- EC50 [nM], MFI CD86, human B cells with FAP-CHO, w HSA [2]: 52 nM
- EC50 [nM], MFI CD86, human B cells with FAP-CHO, w/o HSA [2]: 28.9 nM
- Efficacy [MFI at highest dose], MFI CD86, human B cells with FAP-CHO, w HSA [3]: 799 MFI
- Efficacy [MFI at highest dose], MFI CD86, human B cells with FAP-CHO, w/o HSA [3]: 1640 MFI
- Efficacy at highest dose, % CD86, human B cells with FAP-CHO, w HSA [3]: 27%
- Efficacy at highest dose, % CD86, human B cells with FAP-CHO, w/o HSA [3]: 43.4%
- Efficacy [MFI at highest dose], MFI CD86, human B cells with WT-CHO (no FAP), w HSA [4]: 299 MFI
- Efficacy [MFI at highest dose], MFI CD86, human B cells with WT-CHO (no FAP), w/o HSA [4]: 291 MFI
- Efficacy at highest dose, % CD86, human B cells with WT-CHO (no FAP), w HSA [4]: 13.7%
- Efficacy at highest dose, % CD86, human B cells with WT-CHO (no FAP), w/o HSA [4]: 12.5%

B3: ankyrin repeat domain of SEQ ID NO: 22 (designed binder)
chain: MRGSHHHHHHGSDLGKKLLQAARAGQLDEVRELLKAGADVNAKDEFGQTPLHIAAKSGHLEIVEVLLKAGADVNAKDVYGRTPLHLAAQYGHLEIVEVLLKAGADVNAKDTQGVTPLHVAAFKGHLEIVEVLLKAGADVNAQDKSGKTPADLAARAGHQDIAEVLQKAA
notes: Expressed in E. coli from a pQE30 derivative that provides an N-terminal His-tag; purified by its His-tag for SPR
- Kd [5]: 0.012 µM

B4: DARPin® protein #29 (SEQ ID NO: 29) (designed binder)
chain: MRGSHHHHHHGSDLGKKLLQAARAGQLDEVRELLKAGADVNAKDTWGFTPLHIAAESGHLEIVEVLLKAGADVNAKDVQGRTPLHIAAHSGHLEIVEVLLKAGADVNAKDFRGWTPLHLAAWSGHLEIVEILLKAGADVNAQDKSGKTPADLAARAGHQDIAEVLQKAA
notes: His-tagged as expressed for HTRF and SPR
- Kd [5]: 0.073 µM

B5: ankyrin repeat domain of SEQ ID NO: 31 (designed binder)
chain: MRGSHHHHHHGSDLGKKLLWAAAAGQLDEVRELLKAGADVNAKDHVGYTPLHIAALAGHLEIVEVLLKAGEDVNAKDHKGRTPLHVAAAVGHLEIVEVLLKAGADVNAKDQQGVTPLHIAAITGHLEIVEVLLKAGADVNAQDKSGKTPADLAARAGHQDIAEVLQKAA
notes: as for B3
- Kd [5]: 0.0735 µM
